From the supplement of paper PMC9112550, “Optimization of the antimicrobial peptide Bac7 by deep mutational scanning” (BMC Biology, 2022) come the findings set out here.
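Also: peptides expressed intracellularly from a pBAD plasmid library in pooled LB shake-flask culture, induced with 0.3% L-arabinose, DNA abundance read by NGS, three biological replicates, DESeq2 with apeglm shrinkage.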

The data set deals with Escherichia coli TOP10. Description: shrunken log2 fold change of peptide-encoding DNA abundance (4.5 h post-induction vs induction); higher = less antimicrobial activity (less host growth inhibition). The note with it: time post-induction: 4.5 h; library: site-saturation at positions 5, 18, 19, 20.
For the sequence RRIRSRPPRLPRPRPRPIEDPRP, the “shrunken log2 fold change” value is 0.0359.
With RRIRTRPPRLPRPRPRPSRKPRP the figure was 0.0182.
Consider RRIRERPPRLPRPRPRPYEVPRP, for which the “shrunken log2 fold change” value is -0.448.
With RRIRPRPPRLPRPRPRPRNTPRP the figure was 1.19; with RRIRTRPPRLPRPRPRPRAYPRP, -0.339; with RRIRKRPPRLPRPRPRPYFGPRP, -0.711.
With RRIRGRPPRLPRPRPRPWWIPRP the figure was 0.0656; with RRIRYRPPRLPRPRPRPMFEPRP, -0.315.
With RRIRLRPPRLPRPRPRPRNTPRP the figure was -0.0367; with RRIRFRPPRLPRPRPRPHLDPRP, -0.275; with RRIRDRPPRLPRPRPRPWGRPRP, 0.258.
For the sequence RRIRMRPPRLPRPRPRPPGCPRP, the “shrunken log2 fold change” value stood at 0.451.
On to RRIRTRPPRLPRPRPRPAHKPRP, for which the “shrunken log2 fold change” value was 0.0105.
Regarding RRIRVRPPRLPRPRPRPVNCPRP, the “shrunken log2 fold change” value is -0.17.
With RRIRCRPPRLPRPRPRPAVNPRP the figure was -0.386; with RRIRDRPPRLPRPRPRPHHDPRP, -0.336; with RRIRCRPPRLPRPRPRPVRFPRP, 0.262.
With RRIRQRPPRLPRPRPRPWGVPRP the figure was 0.122; with RRIRQRPPRLPRPRPRPCYEPRP, -0.0157; with RRIRLRPPRLPRPRPRPLVWPRP, 0.193.
With RRIRERPPRLPRPRPRPAEPPRP the figure was -0.000777; with RRIRNRPPRLPRPRPRPTEQPRP, -0.209.
Consider RRIRCRPPRLPRPRPRPSNFPRP, for which the “shrunken log2 fold change” value is -0.627.
The result for RRIRNRPPRLPRPRPRPLNMPRP reads -0.636; that for RRIRQRPPRLPRPRPRPIIPPRP, -0.904.
Take RRIRRRPPRLPRPRPRPECTPRP: the “shrunken log2 fold change” value turned out to be 0.517.
In the case of RRIRRRPPRLPRPRPRPAYIPRP, the “shrunken log2 fold change” value was -0.201.
Consider RRIRIRPPRLPRPRPRPSTTPRP, for which the “shrunken log2 fold change” value is -0.189.
With RRIRPRPPRLPRPRPRPSDDPRP the figure was -0.0663; with RRIRGRPPRLPRPRPRPILDPRP, 0.277.
In the case of RRIRERPPRLPRPRPRPICSPRP, the “shrunken log2 fold change” value is -0.0316.
The result for RRIRRRPPRLPRPRPRPYHQPRP reads -0.0224; that for RRIRCRPPRLPRPRPRPEHYPRP, -0.625.
For RRIRIRPPRLPRPRPRPNVHPRP, the “shrunken log2 fold change” value is -0.398.
The result for RRIRLRPPRLPRPRPRPCEQPRP reads 0.0377; that for RRIRHRPPRLPRPRPRPLHPPRP, -0.148.
The result for RRIRPRPPRLPRPRPRPWCTPRP reads -0.218.
The result for RRIRRRPPRLPRPRPRPLPIPRP reads 0.451.
As for RRIRIRPPRLPRPRPRPMFVPRP, the “shrunken log2 fold change” value is -0.279.
For the sequence RRIRPRPPRLPRPRPRPMDWPRP, the “shrunken log2 fold change” value was 0.432.
With RRIRSRPPRLPRPRPRPRQLPRP the figure was 0.0648; with RRIRTRPPRLPRPRPRPYNNPRP, -0.429.
With RRIRQRPPRLPRPRPRPAHRPRP the figure was 0.151; with RRIRFRPPRLPRPRPRPPGRPRP, 0.637.
With RRIRCRPPRLPRPRPRPWAEPRP the figure was -0.136; with RRIRGRPPRLPRPRPRPGHMPRP, -0.129.
In the case of RRIRDRPPRLPRPRPRPWGVPRP, the “shrunken log2 fold change” value is 0.0789.
Consider RRIRCRPPRLPRPRPRPHCVPRP, for which the “shrunken log2 fold change” value is -0.439.
With RRIRIRPPRLPRPRPRPPSMPRP the figure was -0.206.
With RRIRVRPPRLPRPRPRPGQSPRP the figure was 0.0938.
The result for RRIRGRPPRLPRPRPRPSMWPRP reads 0.291.
Turning to RRIRFRPPRLPRPRPRPACMPRP, the “shrunken log2 fold change” value was -0.263.
On to RRIRTRPPRLPRPRPRPPGAPRP, for which the “shrunken log2 fold change” value is 0.995.
With RRIRMRPPRLPRPRPRPYPLPRP the figure was -0.141; with RRIRRRPPRLPRPRPRPCEIPRP, 0.0684; with RRIRTRPPRLPRPRPRPDSTPRP, -0.232.
On to RRIRWRPPRLPRPRPRPQHGPRP, for which the “shrunken log2 fold change” value is -0.164.
RRIRCRPPRLPRPRPRPYHQPRP: the “shrunken log2 fold change” value is -0.819.
With RRIRERPPRLPRPRPRPGRLPRP the figure was -0.263; with RRIRFRPPRLPRPRPRPKCWPRP, 0.267.
The result for RRIRTRPPRLPRPRPRPPGRPRP reads 0.586.
The result for RRIRCRPPRLPRPRPRPDRNPRP reads -0.397; that for RRIRFRPPRLPRPRPRPCKQPRP, 0.00386.
On to RRIRQRPPRLPRPRPRPFALPRP, for which the “shrunken log2 fold change” value is -0.103.
The result for RRIRLRPPRLPRPRPRPVYHPRP reads -0.856; that for RRIRDRPPRLPRPRPRPTCVPRP, 0.346.
The result for RRIRPRPPRLPRPRPRPTSTPRP reads -0.0454; that for RRIRYRPPRLPRPRPRPISYPRP, -0.325; that for RRIRTRPPRLPRPRPRPSVLPRP, -0.239.
With RRIRFRPPRLPRPRPRPLWRPRP the figure was 0.32.
As to RRIRMRPPRLPRPRPRPGIFPRP, the “shrunken log2 fold change” value was determined as 0.00597.
For the sequence RRIRKRPPRLPRPRPRPDPPPRP, the “shrunken log2 fold change” value turned out to be 0.927.
With RRIRPRPPRLPRPRPRPCQWPRP the figure was 0.205.
The result for RRIRMRPPRLPRPRPRPDMHPRP reads 1.15; that for RRIRNRPPRLPRPRPRPSPCPRP, -0.36; that for RRIRDRPPRLPRPRPRPDIVPRP, 0.0868.
RRIRYRPPRLPRPRPRPRNGPRP: the “shrunken log2 fold change” value came out at 0.0466.
The result for RRIRLRPPRLPRPRPRPFYQPRP reads -0.161; that for RRIRQRPPRLPRPRPRPCLMPRP, -0.0141.
The result for RRIRWRPPRLPRPRPRPMDQPRP reads -0.131.
For RRIRYRPPRLPRPRPRPSRGPRP, the “shrunken log2 fold change” value is -0.0776.
With RRIRSRPPRLPRPRPRPCVLPRP the figure was -0.247; with RRIRNRPPRLPRPRPRPFVCPRP, -0.45; with RRIRYRPPRLPRPRPRPPGEPRP, 0.0198.
The result for RRIRIRPPRLPRPRPRPYTVPRP reads -1.32.
Turning to RRIRFRPPRLPRPRPRPALVPRP, the “shrunken log2 fold change” value was found to be 0.273.
The result for RRIRWRPPRLPRPRPRPKWSPRP reads 0.272.
With RRIRLRPPRLPRPRPRPGGPPRP the figure was 1.36.
On to RRIRDRPPRLPRPRPRPGLSPRP, for which the “shrunken log2 fold change” value was determined as 0.241.
As for RRIRDRPPRLPRPRPRPKGPPRP, the “shrunken log2 fold change” value was -0.0184.
On to RRIRRRPPRLPRPRPRPENVPRP, for which the “shrunken log2 fold change” value is -0.0722.
